Measurements: patent publication US20250101437, “[…] FOR […] VARIANTS OF A TARGET ANALYTE, METHODS OF MAKING AND USES […]” (McMaster University, published 2025)

What was measured:
[1] = target: SARS-CoV-2 spike S1 subunit, original Wuhan (SARS-CoV-2 (Wuhan), UniProt P0DTC2 P0DTC2:16-685); assay: filter; dot blot; settings: tags: Sino Biological 40591-V08B1, label: 5'-32P
Bovine serum albumin = Bovine serum albumin (Bos taurus, UniProt P02769 P02769:25-607); assay: filter; 50 nM protein; settings: tags: Sigma-Aldrich; label: 5'-32P; four-way junction (proposed)
Bovine serum albumin, sequence (P02769 25-607, one chain of several): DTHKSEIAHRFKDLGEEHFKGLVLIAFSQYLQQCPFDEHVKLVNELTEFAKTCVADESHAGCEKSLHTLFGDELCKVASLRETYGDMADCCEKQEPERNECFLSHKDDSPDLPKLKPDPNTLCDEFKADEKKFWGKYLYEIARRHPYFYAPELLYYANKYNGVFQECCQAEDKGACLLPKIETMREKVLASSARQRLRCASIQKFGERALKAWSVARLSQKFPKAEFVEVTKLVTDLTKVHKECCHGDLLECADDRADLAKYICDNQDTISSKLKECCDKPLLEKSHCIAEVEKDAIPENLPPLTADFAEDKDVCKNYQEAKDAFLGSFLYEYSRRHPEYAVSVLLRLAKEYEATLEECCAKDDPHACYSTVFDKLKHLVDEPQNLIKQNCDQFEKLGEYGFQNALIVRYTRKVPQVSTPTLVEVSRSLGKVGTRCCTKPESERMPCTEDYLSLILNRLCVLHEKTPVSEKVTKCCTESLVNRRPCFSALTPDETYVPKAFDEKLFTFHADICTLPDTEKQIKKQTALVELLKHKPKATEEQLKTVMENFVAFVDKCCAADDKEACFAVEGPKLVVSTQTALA

NL63 spike RBD = NL63 spike RBD (Human coronavirus NL63, UniProt Q6Q1S2 Q6Q1S2:481-616); assay: filter; 50 nM protein; settings: label: 5'-32P; four-way junction (proposed)
NL63 spike RBD, sequence (Q6Q1S2 481-616, one chain of several): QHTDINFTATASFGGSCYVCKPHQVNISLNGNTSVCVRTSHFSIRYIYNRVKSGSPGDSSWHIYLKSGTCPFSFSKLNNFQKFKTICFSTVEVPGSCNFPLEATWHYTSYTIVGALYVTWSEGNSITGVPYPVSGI

alpha-thrombin = alpha-thrombin (Homo sapiens, UniProt P00734;P00734 P00734:328-363,P00734:364-622); assay: filter; 50 nM protein; settings: tags: Sigma-Aldrich; label: 5'-32P; four-way junction (proposed)
229E spike RBD = 229E spike RBD (Human coronavirus 229E, UniProt P15423 P15423:293-435); assay: filter; dot blot; very weak binding; settings: label: 5'-32P; four-way junction (proposed)
229E spike RBD, sequence (P15423 293-435, one chain of several): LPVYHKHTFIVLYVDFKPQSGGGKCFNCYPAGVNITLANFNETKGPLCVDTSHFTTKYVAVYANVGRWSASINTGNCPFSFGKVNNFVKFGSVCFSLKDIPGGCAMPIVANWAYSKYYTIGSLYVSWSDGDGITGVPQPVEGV

OC43 spike RBD = OC43 spike RBD (Human coronavirus OC43, UniProt P36334 P36334:333-607); assay: filter; dot blot; very weak binding; settings: label: 5'-32P; four-way junction (proposed)
OC43 spike RBD, sequence (P36334 333-607, one chain of several): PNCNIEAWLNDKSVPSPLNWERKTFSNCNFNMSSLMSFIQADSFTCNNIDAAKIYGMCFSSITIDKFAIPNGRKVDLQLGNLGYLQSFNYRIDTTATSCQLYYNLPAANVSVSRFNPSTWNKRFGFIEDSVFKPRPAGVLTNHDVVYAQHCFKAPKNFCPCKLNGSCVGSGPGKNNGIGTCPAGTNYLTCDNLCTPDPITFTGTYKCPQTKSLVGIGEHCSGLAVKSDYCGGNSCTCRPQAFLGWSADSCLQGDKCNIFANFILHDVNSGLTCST

[2] = target: SARS-CoV-2 spike trimer, original Wuhan (WHS) (SARS-CoV-2 (Wuhan-Hu-1), UniProt P0DTC2 P0DTC2:14-1213); assay: filter; […]; binding buffer ([…], Mg, Tween-20, pH 7.4); settings: tags: full-length trimeric spike, Expi293 cells, Ni-NTA purified; chain copies: 3 (stated trimeric); label: 5'-32P
SARS-CoV-1 spike protein = SARS-CoV-1 spike protein (SARS-CoV-1, UniProt P59594 P59594:14-1195); assay: filter; settings: label: 5'-32P
MERS-CoV spike RBD = MERS-CoV spike RBD (MERS-CoV, UniProt K9N5Q8 K9N5Q8:367-606); assay: filter; settings: label: 5'-32P
[3] = target: SARS-CoV-2 spike (WH) on pseudotyped lentivirus (SARS-CoV-2 (Wuhan-Hu-1), UniProt P0DTC2 P0DTC2:14-1273); assay: filter; settings: protein: virion; tags: pseudotyped lentivirus, BEI NR-52948 kit; chain copies: 3; label: 5'-32P; four-way junction (proposed)
SARS-CoV-1 spike RBD = SARS-CoV-1 spike RBD (SARS-CoV-1, UniProt P59594 P59594:306-527); assay: filter; settings: label: 5'-32P
[4] = target: T1, SARS-CoV-2 spike S1 subunit, original Wuhan (SARS-CoV-2 (Wuhan), UniProt P0DTC2 P0DTC2:16-685); assay: filter; dot blot; settings: tags: Sino Biological 40591-V08B1; label: 5'-32P
[5] = target: T1, SARS-CoV-2 spike S1 subunit, original …; assay: competition; settings: tags: Sino Biological 40591-V08B1

B1: MSA52-T4 (ssDNA)
DNA: TTACGTCAAGGTGTCACTCCGTAGGGTTTGGCTCCGGGCCTGGCGTCGGTCGCGAAGCATCTCTTTGGCGTG
Kd [1]: 6 nM

B2: MSA52-T3 (ssDNA)
DNA: TTACGTCAAGGTGTCACTCCGTAGGGTTTGGCTCCGGGCCTGGCATCTCTTTGGCGTG
Kd [1]: 94.8 nM

B3: MSA52-T5 (ssDNA)
DNA: ACGCCAAGGTGTCACTCCGTAGGGTTTGGCTCCGGGCCTGGCGTCGGTCGCGAAGCATCTCCTTGGCGT
Kd ([1]; four-way junction (proposed)): 5.5 nM

B4: MSA52 (ssDNA)
DNA: TTACGTCAAGGTGTCACTCCGTAGGGTTTGGCTCCGGGCCTGGCGTCGGTCGTCTCTCGCGAAGCATCTCTTTGGCGTG
binding result (Bovine serum albumin): no binding
binding result (NL63 spike RBD): no binding
binding result (alpha-thrombin): no binding
Kd (229E spike RBD): > 200 nM
Kd (OC43 spike RBD): > 200 nM
Kd [2]: 3.6 nM
Kd (SARS-CoV-1 spike protein): > 150 nM
binding result (MERS-CoV spike RBD): no binding
Kd [3]: 0.0184 nM
binding result (SARS-CoV-1 spike RBD): no binding
Kd [4]: 6.6 nM

B5: MSA52-T1 (ssDNA)
DNA: TTACGTCAAGGTGTCATTGGCTCCGGGCCTGGCGTCGGTCGTCTCTCGCGAAGCATCTCTTTGGCGTG
Kd [1]: 61.8 nM

B6: MSA52-T2 (ssDNA)
DNA: TTACGTCAAGGTGTCACTCCGTAGGGTTTGCTGGCGTCGGTCGTCTCTCGCGAAGCATCTCTTTGGCGTG
Kd [1]: 53.4 nM

B7: Mutant Control (MC, shuffled MSA52) (ssDNA)
DNA: TCTTTCGTGCCATCCTGCGGGTGGCTGTCCGAGGCTGGTGGCTCTGCAAGTGCCACGCTTTATCTGAGGTTCGCCGGTA
binding result [5]: no binding
